B1: Outer dense fiber protein 1 (Homo sapiens), Q14990 (parent)
chain: MAALSCLLDSVRRDIKKVDRELRQLRCIDEFSTRCLCDLYMHPYCCCDLHPYPYCLCYSKRSRSCGLCDLYPCCLCDYKLYCLRPSLRSLERKAIRAIEDEKRELAKLRRTTNRILASSCCSSNILGSVNVCGFEPDQVKVRVKDGKVCVSAERENRYDCLGSKKYSYMNICKEFSLPPCVDEKDVTYSYGLGSCVKIESPCYPCTSPCSPCSPCSPCNPCSPCNPCSPYDPCNPCYPCGSRFSCRKMIL
B2: Pre-mRNA-splicing factor SPF27 (Homo sapiens), O75934 (parent)
chain: MAGTGLVAGEVVVDALPYFDQGYEAPGVREAAAALVEEETRRYRPTKNYLSYLTAPDYSAFETDIMRNEFERLAARQPIELLSMKRYELPAPSSGQKNDITAWQECVNNSMAQLEHQAVRIENLELMSQHGCNAWKVYNENLVHMIEHAQKELQKLRKHIQDLNWQRKNMQLTAGSKLREMESNWVSLVSKNYEIERTIVQLENEIYQIKQQHGEANKENIRQDF
partner: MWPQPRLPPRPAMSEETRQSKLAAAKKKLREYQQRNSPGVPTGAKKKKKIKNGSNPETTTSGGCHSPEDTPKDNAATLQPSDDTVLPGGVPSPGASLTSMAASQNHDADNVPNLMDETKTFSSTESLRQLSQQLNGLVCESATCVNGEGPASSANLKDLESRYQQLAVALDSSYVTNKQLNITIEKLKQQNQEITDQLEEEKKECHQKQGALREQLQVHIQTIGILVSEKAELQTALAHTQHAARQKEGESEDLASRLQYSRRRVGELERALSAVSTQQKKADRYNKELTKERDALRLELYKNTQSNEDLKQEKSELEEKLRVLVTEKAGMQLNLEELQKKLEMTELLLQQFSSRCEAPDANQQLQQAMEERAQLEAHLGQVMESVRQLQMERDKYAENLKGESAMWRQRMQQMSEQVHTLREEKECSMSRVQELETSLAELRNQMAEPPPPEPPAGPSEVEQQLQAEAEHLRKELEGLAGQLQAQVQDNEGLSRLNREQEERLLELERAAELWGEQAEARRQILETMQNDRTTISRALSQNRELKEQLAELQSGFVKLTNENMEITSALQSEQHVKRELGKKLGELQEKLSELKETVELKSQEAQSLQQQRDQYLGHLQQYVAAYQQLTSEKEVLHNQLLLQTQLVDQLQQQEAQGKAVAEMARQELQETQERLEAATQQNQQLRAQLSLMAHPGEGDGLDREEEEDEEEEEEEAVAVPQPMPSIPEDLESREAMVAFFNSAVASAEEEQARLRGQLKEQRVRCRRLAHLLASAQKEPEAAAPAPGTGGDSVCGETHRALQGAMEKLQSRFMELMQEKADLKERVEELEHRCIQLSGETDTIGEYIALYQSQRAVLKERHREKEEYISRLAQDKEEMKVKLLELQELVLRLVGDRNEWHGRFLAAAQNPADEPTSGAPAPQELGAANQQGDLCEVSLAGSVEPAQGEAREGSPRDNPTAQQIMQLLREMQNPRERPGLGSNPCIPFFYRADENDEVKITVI
B3: UDP-galactose translocator (Homo sapiens), P78381 (parent)
chain: MAAVGAGGSTAAPGPGAVSAGALEPGTASAAHRRLKYISLAVLVVQNASLILSIRYARTLPGDRFFATTAVVMAEVLKGLTCLLLLFAQKRGNVKHLVLFLHEAVLVQYVDTLKLAVPSLIYTLQNNLQYVAISNLPAATFQVTYQLKILTTALFSVLMLNRSLSRLQWASLLLLFTGVAIVQAQQAGGGGPRPLDQNPGAGLAAVVASCLSSGFAGVYFEKILKGSSGSVWLRNLQLGLFGTALGLVGLWWAEGTAVATRGFFFGYTPAVWGVVLNQAFGGLLVAVVVKYADNILKGFATSLSIVLSTVASIRLFGFHVDPLFALGAGLVIGAVYLYSLPRGAAKAIASASASASGPCVHQQPPGQPPPPQLSSHRGDLITEPFLPKLLTKVKGS
B4: Syntenin-2 (Homo sapiens), Q9H190 (parent)
chain: MSSLYPSLEDLKVDQAIQAQVRASPKMPALPVQATAISPPPVLYPNLAELENYMGLSLSSQEVQESLLQIPEGDSTAVSGPGPGQMVAPVTGYSLGVRRAEIKPGVREIHLCKDERGKTGLRLRKVDQGLFVQLVQANTPASLVGLRFGDQLLQIDGRDCAGWSSHKAHQVVKKASGDKIVVVVRDRPFQRTVTMHKDSMGHVGFVIKKGKIVSLVKGSSAARNGLLTNHYVCEVDGQNVIGLKDKKIMEILATAGNVVTLTIIPSVIYEHMVKKLPPVLLHHTMDHSIPDA
partner: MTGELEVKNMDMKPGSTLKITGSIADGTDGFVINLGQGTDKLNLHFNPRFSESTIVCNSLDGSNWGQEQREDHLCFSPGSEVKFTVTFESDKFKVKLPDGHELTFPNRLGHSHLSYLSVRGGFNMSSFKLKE
B5: Endothelial transcription factor GATA-2 (Homo sapiens), P23769 (parent)
chain: MEVAPEQPRWMAHPAVLNAQHPDSHHPGLAHNYMEPAQLLPPDEVDVFFNHLDSQGNPYYANPAHARARVSYSPAHARLTGGQMCRPHLLHSPGLPWLDGGKAALSAAAAHHHNPWTVSPFSKTPLHPSAAGGPGGPLSVYPGAGGGSGGGSGSSVASLTPTAAHSGSHLFGFPPTPPKEVSPDPSTTGAASPASSSAGGSAARGEDKDGVKYQVSLTESMKMESGSPLRPGLATMGTQPATHHPIPTYPSYVPAAAHDYSSGLFHPGGFLGGPASSFTPKQRSKARSCSEGRECVNCGATATPLWRRDGTGHYLCNACGLYHKMNGQNRPLIKPKRRLSAARRAGTCCANCQTTTTTLWRRNANGDPVCNACGLYYKLHNVNRPLTMKKEGIQTRNRKMSNKSKKSKKGAECFEELSKCMQEKSSPFSAAALAGHMAPVGHLPPFSHSGHILPTPTPIHPSSSLSFGHPHPSSMVTAMG
partner: B2 partner
B6: Protein BANP (Homo sapiens), Q8N9N5 (parent)
chain: MMSEHDLADVVQIAVEDLSPDHPVVLENHVVTDEDEPALKRQRLEINCQDPSIKTICLRLDSIEAKLQALEATCKSLEEKLDLVTNKQHSPIQVPMVAGSPLGATQTCNKVRCVVPQTTVILNNDRQNAIVAKMEDPLSNRAPDSLENVISNAVPGRRQNTIVVKVPGQEDSHHEDGESGSEASDSVSSCGQAGSQSIGSNVTLITLNSEEDYPNGTWLGDENNPEMRVRCAIIPSDMLHISTNCRTAEKMALTLLDYLFHREVQAVSNLSGQGKHGKKQLDPLTIYGIRCHLFYKFGITESDWYRIKQSIDSKCRTAWRRKQRGQSLAVKSFSRRTPNSSSYCPSEPMMSTPPPASELPQPQPQPQALHYALANAQQVQIHQIGEDGQVQVGHLHIAQVPQGEQVQITQDSEGNLQIHHVGQDGQLLEATRIPCLLAPSVFKASSGQVLQGAQLIAVASSDPAAAGVDGSPLQGSDIQVQYVQLAPVSDHTAGAQTAEALQPTLQPEMQLEHGAIQIQ
partner: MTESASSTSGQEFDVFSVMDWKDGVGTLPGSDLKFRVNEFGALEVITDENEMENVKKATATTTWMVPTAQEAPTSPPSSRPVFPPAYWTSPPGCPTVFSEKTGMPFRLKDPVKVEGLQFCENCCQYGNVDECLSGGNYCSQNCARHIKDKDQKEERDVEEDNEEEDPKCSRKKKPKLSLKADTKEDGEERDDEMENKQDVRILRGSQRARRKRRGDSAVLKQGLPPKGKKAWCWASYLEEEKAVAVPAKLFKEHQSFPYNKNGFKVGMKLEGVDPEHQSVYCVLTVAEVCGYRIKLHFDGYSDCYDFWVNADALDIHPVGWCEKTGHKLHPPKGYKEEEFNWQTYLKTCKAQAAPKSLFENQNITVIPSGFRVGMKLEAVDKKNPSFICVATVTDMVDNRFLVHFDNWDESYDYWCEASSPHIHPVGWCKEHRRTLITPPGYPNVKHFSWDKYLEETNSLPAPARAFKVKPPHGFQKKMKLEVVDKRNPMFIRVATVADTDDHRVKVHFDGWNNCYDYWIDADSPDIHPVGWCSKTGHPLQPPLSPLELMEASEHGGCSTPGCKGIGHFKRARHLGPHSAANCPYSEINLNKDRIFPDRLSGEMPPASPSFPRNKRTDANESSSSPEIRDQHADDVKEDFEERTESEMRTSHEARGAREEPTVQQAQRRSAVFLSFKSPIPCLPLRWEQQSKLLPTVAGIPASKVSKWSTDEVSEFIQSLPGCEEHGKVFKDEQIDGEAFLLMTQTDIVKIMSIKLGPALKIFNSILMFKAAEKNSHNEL
B7: Cyclic AMP-responsive element-binding protein 3-like protein 1 (Homo sapiens), Q96BA8 (parent)
chain: MDAVLEPFPADRLFPGSSFLDLGDLNESDFLNNAHFPEHLDHFTENMEDFSNDLFSSFFDDPVLDEKSPLLDMELDSPTPGIQAEHSYSLSGDSAPQSPLVPIKMEDTTQDAEHGAWALGHKLCSIMVKQEQSPELPVDPLAAPSAMAAAAAMATTPLLGLSPLSRLPIPHQAPGEMTQLPVIKAEPLEVNQFLKVTPEDLVQMPPTPPSSHGSDSDGSQSPRSLPPSSPVRPMARSSTAISTSPLLTAPHKLQGTSGPLLLTEEEKRTLIAEGYPIPTKLPLTKAEEKALKRVRRKIKNKISAQESRRKKKEYVECLEKKVETFTSENNELWKKVETLENANRTLLQQLQKLQTLVTNKISRPYKMAATQTGTCLMVAALCFVLVLGSLVPCLPEFSSGSQTVKEDPLAADGVYTASQMPSRSLLFYDDGAGLWEDGRSTLLPMEPPDGWEINPGGPAEQRPRDHLQHDHLDSTHETTKYLSEAWPKDGGNGTSPDFSHSKEWFHDRDLGPNTTIKLS
partner: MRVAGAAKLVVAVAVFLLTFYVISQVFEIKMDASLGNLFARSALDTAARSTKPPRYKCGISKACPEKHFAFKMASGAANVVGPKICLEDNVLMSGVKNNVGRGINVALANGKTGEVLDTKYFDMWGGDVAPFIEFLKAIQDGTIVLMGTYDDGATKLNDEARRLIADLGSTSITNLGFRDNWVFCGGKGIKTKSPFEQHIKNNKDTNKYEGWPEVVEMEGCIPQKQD
B8: Bcl-2-interacting killer (Homo sapiens), Q13323 (parent)
chain: MSEVRPLSRDILMETLLYEQLLEPPTMEVLGMTDSEEDLDPMEDFDSLECMEGSDALALRLACIGDEMDVSLRAPRLAQLSEVAMHSLGLAFIYDQTEDIRDVLRSFMDGFTTLKENIMRFWRSPNPGSWVSCEQVLLALLLLLALLLPLLSGGLHLLLK
B9: Four and a half LIM domains protein 2 (Homo sapiens), Q14192 (parent)
chain: MTERFDCHHCNESLFGKKYILREESPYCVVCFETLFANTCEECGKPIGCDCKDLSYKDRHWHEACFHCSQCRNSLVDKPFAAKEDQLLCTDCYSNEYSSKCQECKKTIMPGTRKMEYKGSSWHETCFICHRCQQPIGTKSFIPKDNQNFCVPCYEKQHAMQCVQCKKPITTGGVTYREQPWHKECFVCTACRKQLSGQRFTARDDFAYCLNCFCDLYAKKCAGCTNPISGLGGTKYISFEERQWHNDCFNCKKCSLSLVGRGFLTERDDILCPDCGKDI
partner: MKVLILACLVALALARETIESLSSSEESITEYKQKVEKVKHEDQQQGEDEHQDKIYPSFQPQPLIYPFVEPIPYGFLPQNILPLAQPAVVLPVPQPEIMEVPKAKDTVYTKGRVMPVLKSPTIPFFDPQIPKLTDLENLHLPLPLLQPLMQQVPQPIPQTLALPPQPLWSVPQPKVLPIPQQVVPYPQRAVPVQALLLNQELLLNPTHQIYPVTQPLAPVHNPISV

Variants of: B1
Settings: with mtus2_human MTUS2, Q5JR59
Sequence of mtus2_human MTUS2, Q5JR59 (Q5JR59 whole entry): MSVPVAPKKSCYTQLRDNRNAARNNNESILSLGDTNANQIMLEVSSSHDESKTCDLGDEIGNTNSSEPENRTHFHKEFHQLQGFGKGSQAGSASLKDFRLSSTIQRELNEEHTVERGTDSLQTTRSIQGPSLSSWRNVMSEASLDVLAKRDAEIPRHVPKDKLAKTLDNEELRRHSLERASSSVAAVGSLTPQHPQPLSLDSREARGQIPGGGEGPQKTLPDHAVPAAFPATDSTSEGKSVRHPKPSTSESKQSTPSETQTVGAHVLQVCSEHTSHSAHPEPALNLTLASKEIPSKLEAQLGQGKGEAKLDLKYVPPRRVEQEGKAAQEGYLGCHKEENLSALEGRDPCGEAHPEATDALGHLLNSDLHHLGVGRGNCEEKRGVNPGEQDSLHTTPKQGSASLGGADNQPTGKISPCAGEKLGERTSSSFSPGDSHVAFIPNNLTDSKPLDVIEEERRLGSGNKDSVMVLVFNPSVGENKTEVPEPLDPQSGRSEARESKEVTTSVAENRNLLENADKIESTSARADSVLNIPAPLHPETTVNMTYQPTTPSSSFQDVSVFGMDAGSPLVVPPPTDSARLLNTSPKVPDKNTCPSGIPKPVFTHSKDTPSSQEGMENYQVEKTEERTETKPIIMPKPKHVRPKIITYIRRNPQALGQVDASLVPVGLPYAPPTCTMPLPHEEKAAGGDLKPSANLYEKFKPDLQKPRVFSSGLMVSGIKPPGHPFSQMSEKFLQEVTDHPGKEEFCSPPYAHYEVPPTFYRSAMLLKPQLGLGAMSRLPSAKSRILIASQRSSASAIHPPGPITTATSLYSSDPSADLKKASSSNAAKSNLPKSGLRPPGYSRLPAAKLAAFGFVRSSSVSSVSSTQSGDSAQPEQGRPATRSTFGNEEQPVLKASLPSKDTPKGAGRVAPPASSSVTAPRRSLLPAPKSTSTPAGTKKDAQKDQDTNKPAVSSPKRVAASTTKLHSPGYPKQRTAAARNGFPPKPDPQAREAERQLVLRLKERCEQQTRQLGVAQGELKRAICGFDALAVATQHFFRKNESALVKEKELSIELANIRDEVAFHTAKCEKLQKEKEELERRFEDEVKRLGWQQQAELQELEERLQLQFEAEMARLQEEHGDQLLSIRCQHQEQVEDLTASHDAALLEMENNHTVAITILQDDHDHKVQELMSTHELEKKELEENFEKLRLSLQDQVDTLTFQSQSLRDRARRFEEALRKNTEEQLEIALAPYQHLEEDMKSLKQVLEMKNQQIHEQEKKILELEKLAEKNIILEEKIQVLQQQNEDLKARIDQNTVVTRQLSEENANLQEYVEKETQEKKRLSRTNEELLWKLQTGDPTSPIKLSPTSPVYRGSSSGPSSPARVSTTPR

Row | Variant | effect of a mutation on the interaction
1 | K17N | with no effect
2 | S89I | with no effect

Variants of: B2
Settings: with goga2_human GOLGA2, Q08379

Row | Variant | effect of a mutation on the interaction
3 | N139S | disrupting interaction strength

Variants of: B3
Settings: with pls1_human PLSCR1, O15162
Sequence of pls1_human PLSCR1, O15162 (O15162 whole entry): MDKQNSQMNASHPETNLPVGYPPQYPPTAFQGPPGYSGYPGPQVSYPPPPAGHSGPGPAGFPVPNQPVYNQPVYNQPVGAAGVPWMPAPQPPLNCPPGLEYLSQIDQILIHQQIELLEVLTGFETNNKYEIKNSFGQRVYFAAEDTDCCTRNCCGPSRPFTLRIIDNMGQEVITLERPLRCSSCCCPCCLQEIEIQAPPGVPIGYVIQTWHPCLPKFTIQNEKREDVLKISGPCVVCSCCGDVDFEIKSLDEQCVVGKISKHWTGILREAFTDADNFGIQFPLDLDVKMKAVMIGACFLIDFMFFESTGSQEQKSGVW

Row | Variant | effect of a mutation on the interaction
4 | A57T | with no effect

Variants of: B4
Settings: with leg2_human LGALS2, P05162

Row | Variant | effect of a mutation on the interaction
5 | R223C | disrupting interaction strength

Variants of: B5
Settings: with goga2_human GOLGA2, Q08379

Row | Variant | effect of a mutation on the interaction
6 | A164T | with no effect

Variants of: B6
Settings: with lmbl3_human L3MBTL3, Q96JM7

Row | Variant | effect of a mutation on the interaction
7 | P348S | with no effect

Variants of: B7
Settings: with fam3c_human FAM3C

Row | Variant | effect of a mutation on the interaction
8 | I516S | with no effect
9 | A152T | with no effect

Variants of: B8
Settings: with BCL2L1, Q07817
Sequence of BCL2L1, Q07817 (Q07817 whole entry): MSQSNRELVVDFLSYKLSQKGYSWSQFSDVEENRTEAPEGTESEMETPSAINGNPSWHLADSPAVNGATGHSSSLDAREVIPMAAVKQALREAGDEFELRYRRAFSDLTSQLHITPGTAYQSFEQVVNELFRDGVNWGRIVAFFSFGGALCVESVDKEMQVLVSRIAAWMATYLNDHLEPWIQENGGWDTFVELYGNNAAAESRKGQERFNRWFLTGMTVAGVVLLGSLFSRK

Row | Variant | effect of a mutation on the interaction
10 | D69E | with no effect

Variants of: B9
Settings: with casb_human CSN2, P05814

Row | Variant | effect of a mutation on the interaction
11 | A37S | with no effect
